# Assay results: US8329186B2, “Treatment of inflammation using BST2 inhibitor” (Isu Abxis Co., Ltd, priority 2004, dated 2012)
# How the values were obtained:
# mouse model of asthma = experiment: Ovalbumin-induced mouse model of asthma: infiltrating cells in bronchoalveolar lavage; format: in vivo; settings: ovalbumin-sensitized mice
# Experimental: A mouse model of asthma was prepared by sensitizing mice (C57B6, 8 weeks) with ovalbumin. In detail, mice were initially sensitized for five continuous days by intranasal injection of ovalbumin. After three weeks, mice were intranasally sensitized again with ovalbumin for five continuous days. One week after the secondary sensitization, mice were challenged intranasally with ovalbumin three times every 24 hrs to induce asthma. Herein, a Bst2 decoy was intravenously injected into mice 30 min before sensitization with ovalbumin, and was injected into mice 30 min before the first sensitization and the last injection of ovalbumin. Three days after the last injection, serum samples, lung tissues, and the like were collected from mice.
# A mouse model of asthma was prepared as described in Example 8-1.
# The effect of Bst2 decoy-Fc fusions on immune cell infiltration was assessed as described in Example 8-2. When ovalbumin-sensitized mice were treated with a Bst2 decoy, the total number of infiltrating cells was decreased and, especially, the number of neutrophils, eosinophils and lymphocytes except for macrophage was decreased in bronchoalveolar lavage (BAL) (FIG. 27).
# A mouse model of asthma was prepared as described in Example 8-1. The effect of anti-Bst2/Damp1 antibodies on immune cell infiltration was assessed as described in Example 8-2. […]
# CLP sepsis = CLP sepsis model: tissue and organ damage; format: in vivo, rat
# From the text: A rat model of sepsis was induced through cecal ligation and puncture (CLP) as described previously (Wichterman K A, Baue A E, Chaudry I H: Sepsis and septic shock-a review of laboratory models and a proposal. J Surg Res 29:189-201, 1980). An incision was made along the midline of the abdomen on an anesthetized animal. The cecum was exteriorized, ligated and punctured with a stainless steel needle. An appropriate amount of fecal matter was then extruded. The gauge of the needle, number of punctures and amount of fecal matter extruded are all factors in determining the severity of sepsis and mortality. […] The incision was sutured and appropriate post-operative care was administered. Sham-operated animals were subjected to similar laparotomy and intestinal manipulation, however, the cecum was neither ligated nor punctured. Immediately or 6 hours after the CLP procedure, animals were given intravenous injection of vehicle or a Bst2 decoy.
# Blood enzyme levels were measured at 6, 12, and 24 hours post-CLP (FIG. 49A-49D). Organ damage, as indicated by increased levels of alanine aminotransferase (ALT), aspartate aminotransferase (AST), blood urea nitrogen (BUN) and creatinine, was evident in all animals that underwent the CLP procedure.
# [1] = test system: TNCB-induced contact hypersensitivity; experiment: TNCB-induced contact hypersensitivity in mice; format: in vivo, Balb/c mice
# Experimental: To evaluate efficacy of Bst2 decoy on allergic dermatitis, contact hypersensitivity was induced by repeated application of 2,4,6-trinitro-1-chlorobenzene (TNCB) in Balb/c mice. The mice were initially sensitized with 0.2 ml of 1% TNCB solution on day 0, Subsequent challenges of 0.2 ml of 0.2% TNCB solution was applied to the shaved backs of the animals 2-3 times per week from week 2 to week 6. By the end of week 6, all animal developed lesions on the dorsal skin treated with TNCB solution (FIGS. 40A-40C).
# During week 7, 5 daily doses of Bst2 decoy were administered at 10 mg/kg to the animals by intravenous injection, and the animals were sacrificed for observation at the end of week 7.
# H&E staining was performed on exposed skin sections.
molecule,measurement,setting,value
"Bst2 decoy: soluble Bst2 protein fragment having the amino acid sequence of SEQ ID NO:1; extracellular region of human Bst2, six-histidine tag (protein) NSEACRDGLRAVMECRNVTHLLQQELTEAQKGFQDVEAQAATCNHTVMALMASLDAEKAQGQKKVEELEGEITTLNHKLQDASAEVERLRRENQVLSVRIADKKYYPSSQDHHHHHH","number of infiltrating cells in bronchoalveolar lavage (total, neutrophils, eosinophils, lymphocytes)",mouse model of asthma,remarkably decreased
same,"blood levels of ALT, AST, BUN and creatinine","CLP sepsis; 6, 12 and 24 hours post-CLP",near-normal level
same,"H&E staining of liver, kidney and lung sections",CLP sepsis; 24 post-CLP,protective effects against organ damage
same,recovery from TNCB-induced skin lesions,"[1]; 10 mg/kg intravenous, 5 daily doses during week 7, vs vehicle alone",recovered much quicker
same,H&E staining of exposed skin sections,[1]; TNCB-treated mice,near-normal morphology with little signs of inflammation
